In patent US20180194859A1:

Target: Recombinant EGFR/His (UniProt P00533)
Test: SPR (Biacore T200), antibody captured on anti-human Fc, EGFR/His as analyte, 1:1 fit

Work on “αHER2×αEGFR LDAb (trastuzumab IgG2 azide clicked to cetuximab IgG2 DBCO) (bispecific antibody)” yielded a Kd of 2.8 nM.
